Results reported in patent US20050026219.

Experiments:
[1] = test system: T1, Raytide EL (protein-tyrosine-kinase substrate, MW 2476 Dalton, Messrs. Calbiochem)
T1 sequence: KKKGPWLEEEEEAYGWLDF

[2] = test system: oligopeptide Ac-Ile-Tyr-Gly-Glu-Phe-NH2 "M-2165" (Messrs. Bachem, MW 668.8)

Substance | phosphorylation of the substrate, detected by RIfS through the fall of free anti-phosphotyrosine antibody [1] | phosphorylation of the substrate, detected by RIfS (AMD sensor) through the fall of free anti-phosphotyrosine antibody [2] | phosphorylation of the substrate, detected by RIfS (diamino-PEG 2000 sensor) through the fall of free anti-phosphotyrosine antibody [2]
Epidermal Growth Factor Receptor Kinase (EGF-RK) isolated from human A 431 carcinoma cells (Messrs. Sigma) | The phosphorylation with the alternative substrate (SEQ ID NO.:3) Raytide™ EL is clearly detectable. | – | –
p60c-src-kinase isolated from human cells (Messrs. Calbiochem) | – | The phosphorylation is very clearly detectable. | The phosphorylation is very clearly detectable.
